Drawing on publication PMC3135172, this text covers fold enhancement of binding over mononucleosomes with only H3K4me3 for 1 substance.

The target in the assay is GST-tagged BPTF PHD-bromodomain (human). Put plainly: pull-down.

Turning to “H4K16ac and H3K4me3 modified mononucleosome (from UniProt P62805 1-103) (complex)”, the fold enhancement of binding over mononucleosomes with only H3K4me3 lay within 2 to 3 fold.
